B1: PRT1182 (protein, listed as Homo sapiens)
chain: PREPCPGGACRVIDGCGSDAGPGMPGTAASGVCGPHGRCVSQPGGNFSCICDSGFTGTYCH
B2: PRT514 (protein, listed as Homo sapiens)
chain: CNCHGKAEECYYDENVARRNLSLNIRGKYIGGGVCINCTQNTAGINCETCTDGFFRPKGVSPNYPRPCQP
B3: PRT587 (protein, listed as Homo sapiens)
chain: CFCHGHADRCAPKPGASAGPSTAVQVHDVCVCQHNTAGPNCERCAPFYNNRPWRPAEGQDAHECQR
B4: PRT529 (protein, listed as Homo sapiens)
chain: CNCHGHASNCYYDPDVERQQASLNTQGIYAGGGVCINCQHNTAGVNCEQCAKGYYRPYGVPVDAPDGCIP
B5: PRT499 (protein, listed as Homo sapiens)
chain: CNCHNKAKDCYYDESVAKQKKSLNTAGQFRGGGVCINCLQNTMGINCETCIDGYYRPHKVSPYEDEPCRP
B6: PRT1459 (protein, listed as Homo sapiens)
chain: CQCNSHSKSCHYNISVDPFPFEHFRGGGGVCDDCEHNTTGRNCELCKDYFFRQVGADPSAIDVCKP
B7: PRT551 (protein, listed as Homo sapiens)
chain: CNCYGHATDCYYDPEVDRRRASQSLDGTYQGGGVCIDCQHHTTGVNCERCLPGFYRSPNHPLDSPHVCRR
B8: PRT480 (protein, listed as Homo sapiens)
chain: VCSLHLCRNNGRCIRKMWNAPSYLHLNPASYHIEASEDGEFTVKGKASDTDLAVMADTFSCHCYQGYEGADCR
B9: PRT477 (protein, listed as Homo sapiens)
chain: LCSQALCSGHGRCVRRTSHPKALLLLNPASFSIQLTPGGGPLSLRGALSLGDQAQMAVEFKCRCYPGWQAPWCE

Assays:
Assay type in all cases: cell-based
Proteus vulgaris = test: MIC against Gram-negative bacteria: Proteus vulgaris; settings: 5×10^5 CFU/mL
Experimental: (§1) 1. Gram-negative bacteria, such as E. coli BL21, Pseudomonas aeruginosa, Klebsiella pneumonia, Enterobacter cloacae, Aeromonas hydrophila, Citrobacter diversus, Moraxella catarrhalis, Proteus mirabilis, Proteus vulgaris, Serratia marcescens, etc were streaked on solid LB medium and cultured respectively. Then, typical clones were picked, inoculated into common liquid LB medium respectively, and cultured at 37° C. with shaking at 185 rpm until the McFarland specific turbidity was 0.5. The bacterial culture of each of Gram-negative bacteria was centrifuged at 4000×g for 3 min, the supernatant was discarded, and the thalli were resuspended with fresh LB medium.
(§2) 2. The above-mentioned bacterial suspensions were diluted and inoculated into 96-well plates with the final concentration of the bacterial suspension being 5×10^5 CFU/mL per well.
(§3) 3. Each of the purified human-originated EGF domain proteins (PRT1 to PRT1498 in Table 1) was added to each of the above wells and subjected to two-fold serial dilution in concentration. Three parallel wells were set up for each concentration in the gradient.
(§4) 4. The above-mentioned 96-well plates were placed and cultured at 37° C. in shaking incubator shaking at 175 rpm. […] The minimal inhibitory concentration MIC is defined as the lowest concentration of the recombinant protein at which there is no growth of the bacteria.

Citrobacter diversus = test: MIC against Gram-negative bacteria: Citrobacter diversus; settings: 5×10^5 CFU/mL
Experimental: as §1, §2, §3, §4

Pseudomonas aeruginosa = test: MIC against Gram-negative bacteria: Pseudomonas aeruginosa; settings: 5×10^5 CFU/mL
Experimental: as §1, §2, §3, §4

Moraxella catarrhalis = test: MIC against Gram-negative bacteria: Moraxella catarrhalis; settings: 5×10^5 CFU/mL
Experimental: as §1, §2, §3, §4

E. coli DH5α = test: Antibacterial activity: MIC and growth curve against E. coli DH5α in 96-well plate; settings: minimal inhibitory concentration against E. coli DH5α; 96-well plate, 5×10^5 CFU/mL, 37° C., judged after 8 h
Experimental: 1. E. coli DH5α was exemplified. E. coli DH5α was streaked and cultured on LB solid medium. Then, a typical clone was picked and inoculated into common LB liquid medium, cultured at 37° C. with shaking at 185 rpm until the logarithmic growth phase was reached (OD600 of about 0.5). The bacterial culture was centrifuged at 4000×g for 3 min, the supernatant was discarded, and the thalli were resuspended with fresh LB medium.
2. The above-mentioned bacterial suspension was diluted and inoculated into a 96-well plate with the total volume of 100 μL per well and a bacterial count of 5×10^5 CFU/mL.
3. The recombinant protein hF VII-EGF1 was added to the above-mentioned wells with the final protein concentration in the well of the highest protein concentration being 50 μg/mL. Basing on this final concentration, a two-fold serial dilution was performed till a protein concentration gradient consisting of 50, 25, and 12.5 μg/mL was set up. Three parallel wells were set up for each concentration in the gradient.
4. The above-mentioned 96-well plate was placed and cultured at 37° C. in shaking incubator shaking at 175 rpm. Samples were taken every 30 min, the absorbance values were determined at 600 nm wavelength under a ultra violet spectrophotometer, and an inhibition curve was plotted. […] The minimal inhibitory concentration MIC is defined as the lowest concentration of the recombinant protein at which there is no growth of the bacteria.
According to the experimental procedures in Example 14, the minimal inhibitory concentrations (MIC, μg/mL) of the other human-originated EGF domain proteins (PRT2 to PRT1498 in Table 1) for E. coli DH5α were determined.

E. coli BL21 = test: MIC against Gram-negative bacteria: E. coli BL21; settings: 5×10^5 CFU/mL
Experimental: as §1, §2, §3, §4

Proteus mirabilis = test: MIC against Gram-negative bacteria: Proteus mirabilis; settings: 5×10^5 CFU/mL
Experimental: as §1, §2, §3, §4

Aeromonas hydrophila = test: MIC against Gram-negative bacteria: Aeromonas hydrophila; settings: 5×10^5 CFU/mL
Experimental: as §1, §2, §3, §4

Klebsiella pneumonia = test: MIC against Gram-negative bacteria: Klebsiella pneumonia; settings: 5×10^5 CFU/mL
Experimental: as §1, §2, §3, §4

Serratia marcescens = test: MIC against Gram-negative bacteria: Serratia marcescens; settings: 5×10^5 CFU/mL
Experimental: as §1, §2, §3, §4

Enterobacter cloacae = test: MIC against Gram-negative bacteria: Enterobacter cloacae; settings: 5×10^5 CFU/mL
Experimental: as §1, §2, §3, §4

[1] = 10 h cultivation at 37° C., two-fold serial dilution

Molecule | MIC (E. coli DH5α) [µg/mL] | MIC against P. vulgaris (Proteus vulgaris; 96-well plate, 37° C., 10 h) [µg/mL] | MIC against C. diversus (Citrobacter diversus; 96-well plate, 37° C., 10 h) [µg/mL] | MIC against P. aeruginosa (Pseudomonas aeruginosa; 96-well plate, 37° C., 10 h) [µg/mL] | MIC against M. catarrhalis (Moraxella catarrhalis; 96-well plate, 37° C., 10 h) [µg/mL] | MIC against E. coli BL21 (E. coli BL21; 96-well plate, 37° C., 10 h) [µg/mL] | MIC against P. mirabilis (Proteus mirabilis; 96-well plate, 37° C., 10 h) [µg/mL] | MIC against A. hydrophila (Aeromonas hydrophila; 96-well plate, 37° C., 10 h) [µg/mL] | MIC against K. pneumonia (Klebsiella pneumonia; 96-well plate, 37° C., 10 h) [µg/mL] | MIC against S. marcescens (Serratia marcescens; 96-well plate, 37° C., 10 h) [µg/mL] | MIC against E. cloacae (Enterobacter cloacae; 96-well plate, 37° C., 10 h) [µg/mL] | other results
B1 | 12.5 |  |  |  |  |  |  |  |  |  |  | MIC P. vulgaris (Proteus vulgaris; [1]): 12.5 µg/mL; MIC C. diversus (Citrobacter diversus; [1]): 50 µg/mL; MIC P. aeruginosa (Pseudomonas aeruginosa; [1]): 50 µg/mL; MIC M. catarrhalis (Moraxella catarrhalis; [1]): 12.5 µg/mL; MIC E. coli BL21 (E. coli BL21; [1]): 25 µg/mL; MIC P. mirabilis (Proteus mirabilis; [1]): 50 µg/mL; MIC A. hydrophila (Aeromonas hydrophila; [1]): 12.5 µg/mL; MIC K. pneumonia (Klebsiella pneumonia; [1]): 25 µg/mL; MIC S. marcescens (Serratia marcescens; [1]): 25 µg/mL; MIC E. cloacae (Enterobacter cloacae; [1]): 25 µg/mL
B2 | 50 | 25 | 12.5 | 50 | 25 | 12.5 | 12.5 | 25 | 25 | 12.5 | 12.5 | 
B3 | 25 | 50 | 25 | 25 | 12.5 | 50 | 25 | 50 | 12.5 | 25 | 25 | 
B4 | 25 | 12.5 | 25 | 25 | 50 | 12.5 | 25 | 12.5 | 50 | 25 | 25 | 
B5 | 12.5 | 25 | 12.5 | 100 | 25 | 25 | 50 | 25 | 25 | 12.5 | 12.5 | 
B6 | 12.5 |  |  |  |  |  |  |  |  |  |  | MIC against P. vulgaris (Proteus vulgaris; Proteus vulgaris, 10 h cultivation at 37° C.): 50 µg/mL; MIC against C. diversus (Citrobacter diversus; Citrobacter diversus, 10 h cultivation at 37° C.): 50 µg/mL; MIC against P. aeruginosa (Pseudomonas aeruginosa; Pseudomonas aeruginosa, 10 h cultivation at 37° C.): 25 µg/mL; MIC against M. catarrhalis (Moraxella catarrhalis; Moraxella catarrhalis, 10 h cultivation at 37° C.): 12.5 µg/mL; MIC against E. coli BL21 (E. coli BL21; E. coli BL21, 10 h cultivation at 37° C.): 50 µg/mL; MIC against P. mirabilis (Proteus mirabilis; Proteus mirabilis, 10 h cultivation at 37° C.): 25 µg/mL; MIC against A. hydrophila (Aeromonas hydrophila; Aeromonas hydrophila, 10 h cultivation at 37° C.): 25 µg/mL; MIC against K. pneumonia (Klebsiella pneumonia; Klebsiella pneumonia, 10 h cultivation at 37° C.): 25 µg/mL; MIC against S. marcescens (Serratia marcescens; Serratia marcescens, 10 h cultivation at 37° C.): 25 µg/mL; MIC against E. cloacae (Enterobacter cloacae; Enterobacter cloacae, 10 h cultivation at 37° C.): 12.5 µg/mL
B7 | 12.5 | 25 | 50 | 50 | 25 | 25 | 12.5 | 25 | 25 | 50 | 12.5 | 
B8 | 12.5 | 25 | 50 | 50 | 25 | 25 | 12.5 | 25 | 25 | 50 | 12.5 | 
B9 | 12.5 | 12.5 | 25 | 12.5 | 50 | 50 | 25 | 12.5 | 50 | 25 | 25 | 

From patent US9833497B2, “Human originated EGF domain proteins and use of the same” (CHENGDU SOURCEBIO LIMITED-LIABILITY COMPANY, priority 2013, dated 2017)
